The test addresses human uPAR on 293/uPAR cells (human) (UniProt Q03405). Nature of the test: cell-based or functional assay.

human uPAR on 293/uPAR cells (human), sequence (Q03405 23-305): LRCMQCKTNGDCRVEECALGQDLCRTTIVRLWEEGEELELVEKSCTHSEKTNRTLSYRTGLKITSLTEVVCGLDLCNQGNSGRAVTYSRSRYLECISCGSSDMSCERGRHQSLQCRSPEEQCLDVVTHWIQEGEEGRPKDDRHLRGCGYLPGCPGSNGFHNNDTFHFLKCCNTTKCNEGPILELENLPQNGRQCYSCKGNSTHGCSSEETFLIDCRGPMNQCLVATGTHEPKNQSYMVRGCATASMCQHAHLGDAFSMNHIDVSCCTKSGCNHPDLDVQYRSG

B1: SMB-GFD/mFc (disulphide-linked homodimer) (Fc fusion)
chain: DQESCKGRCTEGFNVDKKCQCDELCSYYQSCCTDYTAECKPGGGGSGGGGSGGGGPSNCDCLNGGTCVSNKYFSNIHWCNCPKKFGGQHCEIDKSKGSGLEAGAGPRDCGCKPCICTVPEVSSVFIFPPKPKDVLTITLTPKVTCVVVDISKDDPEVQFSWFVDDVEVHTAQTKPREEQFNSTFRSVSELPIMHQDWLNGKEFKCRVNSAAFPAPIEKTISKTKGRPKAPQVYTIPPPKEQMAKDKVSLTCMITDFFPEDITVEWQWNGQPAENYKNTQPIMDTDGSYFVYSKLNVQKSNWEAGNTFTCSVLHEGLHNHHTEKSLSHSPGK
As to B1, the IC50, inhibition of 293/uPAR cell adhesion to VN (RTCA impedance, 1 h after addition) was 6.3 nM and the maximal inhibition of 293/uPAR cell adhesion to VN came to 60%.

B2: GFD-SMB/mFc (disulphide-linked homodimer) (Fc fusion)
chain: SNELHQVPSNCDCLNGGTCVSNKYFSNIHWCNCPKKFGGQHCEIDKSKTGGGGSGGGGSGGGGQESCKGRCTEGFNVDKKCQCDELCSYYQSCCTDYTAECKPGSGLEAGAGPRDCGCKPCICTVPEVSSVFIFPPKPKDVLTITLTPKVTCVVVDISKDDPEVQFSWFVDDVEVHTAQTKPREEQFNSTFRSVSELPIMHQDWLNGKEFKCRVNSAAFPAPIEKTISKTKGRPKAPQVYTIPPPKEQMAKDKVSLTCMITDFFPEDITVEWQWNGQPAENYKNTQPIMDTDGSYFVYSKLNVQKSNWEAGNTFTCSVLHEGLHNHHTEKSLSHSPGK
As for B2, the IC50, inhibition of 293/uPAR cell adhesion to VN (RTCA impedance, 1 h after addition) is 20 nM and the maximal inhibition of 293/uPAR cell adhesion to VN amounted to 60%.

These data come from patent US20130280162A1.
